Data published in patent publication US20260007714A1 (TEN PEAKS, published 2026).

Tests used:
[1] = target: T1, HLA-B*15:01 (human); assay: refolding of HLA with synthetic peptide, size-exclusion chromatography (FIG. 4B)
T1 construct: the method paragraph describes expression only for HLA-B*39:01

[2] = target: T2, HLA-B*57:01 (human); assay: refolding of HLA with synthetic peptide, size-exclusion chromatography (FIG. 4A)
T2 construct: the method paragraph describes expression only for HLA-B*39:01; also called HLA-B*057:01

Binder | binding result [1] | binding result [2]
TKGPSVFPL (Synthetic peptide (Genscript) derived from infliximab; also called 3901_tkg) [SEQ ID NO: 2 (TKGPSVFPL), synthetic peptide derived from the infliximab heavy chain] | no binding | no binding
THQGLSSPV (Synthetic peptide (Genscript) derived from infliximab; also called 3901_thq) [SEQ ID NO: 1 (THQGLSSPV), synthetic peptide derived from the infliximab light chain] | no binding | no binding
